In patent US12365732 (23ANDME, dated 2025):

Tests used:
[1] = target: T1, cy-CD96 (soluble, extracellular domain) (cynomolgus monkey, UniProt P40200 22-516 (human entry), biotinylated in Octet and blocking ELISA); experiment: SPR 25C, IgG on Protein A, CD96 analyte
T1 construct: the assays name only cy-CD96; also called biotinylated cy-CD96
T1 chain: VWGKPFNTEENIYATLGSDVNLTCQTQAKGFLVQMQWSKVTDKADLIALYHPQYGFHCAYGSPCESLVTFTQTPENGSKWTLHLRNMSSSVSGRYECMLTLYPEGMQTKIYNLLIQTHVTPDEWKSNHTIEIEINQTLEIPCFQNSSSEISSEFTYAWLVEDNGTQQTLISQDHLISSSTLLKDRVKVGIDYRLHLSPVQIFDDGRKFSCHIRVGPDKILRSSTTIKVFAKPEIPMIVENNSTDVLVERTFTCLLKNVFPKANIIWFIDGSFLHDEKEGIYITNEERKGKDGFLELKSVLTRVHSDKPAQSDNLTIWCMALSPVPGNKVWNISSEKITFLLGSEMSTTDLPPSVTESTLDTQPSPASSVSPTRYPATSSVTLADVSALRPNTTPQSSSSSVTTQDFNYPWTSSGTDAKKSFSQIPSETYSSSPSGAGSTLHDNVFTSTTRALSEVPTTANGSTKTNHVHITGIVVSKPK
Experimental: SPR measurement with a BIACORE™ 8K instrument was performed to determine the monovalent binding affinity of mAb1.v7 and h10G1 IgG to hu-CD96, cy-CD96, and mo-CD96. Briefly, antibodies were diluted at 0.5 µg/mL in HBS-P buffer (0.01 M HEPES pH 7.4, 0.15 M NaCl, 0.005% Surfactant P20) and applied to the Protein A chip at 30 µL/min flow rate for 60 s in flow cell 2 (FC2). Then 3-fold serial dilutions of hu-CD96, cy-CD96, or mo-CD96 in HBS-P buffer (0.01 M HEPES pH 7.4, 0.15 M NaCl, 0.005% surfactant P20) from (0.4 nM) to high (100 nM) were injected (flow rate: 30 µL/min) at 25° C. to both flow cell 1 (FC1) and flow cell 2 (FC2). The sensorgram was recorded and subject to reference and buffer subtraction before evaluating by BIACORE® 8K Evaluation Software (version 1.1.1.7442). Association rates ($kon$) and dissociation rates ($koff$) were calculated using a simple one-to-one Langmuir binding model.

[2] = target: T2, hu-CD226 His tag (human, UniProt Q15762 19-247, limits assumed, biotinylated); experiment: SPR 25C, biotin-CD226-His captured, IgG analyte
T2 sequence (looked up): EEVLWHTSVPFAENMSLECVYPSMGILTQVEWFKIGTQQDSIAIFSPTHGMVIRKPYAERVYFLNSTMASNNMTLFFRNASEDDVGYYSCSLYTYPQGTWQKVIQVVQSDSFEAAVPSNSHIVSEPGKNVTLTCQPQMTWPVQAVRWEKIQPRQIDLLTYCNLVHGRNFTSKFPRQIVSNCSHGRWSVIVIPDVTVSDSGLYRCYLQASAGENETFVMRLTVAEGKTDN
Experimental: (§1) To determine the binding affinity to hu-CD226 and cy-CD226 of mAb1.v7.NGS8, h10G1, hCD155 and anti-hCD226 antibody DX11 (Abcam, cat #Ab33397), SPR measurement with a BIACORE™ 8K instrument was performed. Briefly, a 1:4 dilution of Biotin CAPture Reagent (GE Healthcare) into HBS-EP buffer (0.01 M HEPES pH 7.4, 0.15 M NaCl, 3 mM EDTA, 0.005% Surfactant P20) was applied to the chip at 2 µL/min flow rate. For the kinetics measurements, 5 µg/ml of biotinylated hu-CD226 His tag (Sino biological, cat #10565-H08H) and cy-CD226 His tag (Arco biosystems, cat #DN1-052H9) was captured at 10 µL/min to achieve ~50 response units in the second flow cell (FC2). FC1 was kept as a reference. Next, 3-fold serial dilutions of IgG in HBS-P buffer (0.01 M HEPES pH 7.4, 0.15 M NaCl, 0.005% surfactant P20) from low (1.3 nM) to high (1000 nM) concentration were injected (flow rate: 30 µL/min) at 25° C. The sensorgram was recorded and subject to reference and buffer subtraction before evaluating by BIACORE® 8K Evaluation Software (version 1.1.1.7442). Association rates ($kon$) and dissociation rates ($koff$) were calculated using a simple one-to-one Langmuir binding model. The equilibrium dissociation constant (K_D) value was calculated as the ratio of $koff/kon$. […]

[3] = target: T3, cy-CD226 His tag (cynomolgus monkey, UniProt A0A2K5W1Z6 19-247, biotinylated); experiment: SPR 25C, biotin-CD226-His captured, IgG analyte
T3 sequence: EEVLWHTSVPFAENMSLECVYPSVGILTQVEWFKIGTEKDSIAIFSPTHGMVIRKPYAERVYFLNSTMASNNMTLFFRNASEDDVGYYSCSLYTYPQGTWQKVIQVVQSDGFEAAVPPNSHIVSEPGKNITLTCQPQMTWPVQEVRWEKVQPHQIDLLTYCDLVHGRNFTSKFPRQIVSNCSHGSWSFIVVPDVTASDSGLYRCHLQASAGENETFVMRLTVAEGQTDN
Experimental: as §1

[4] = target: T4, hu-CD96 Fc (human, biotinylated in Table 16); experiment: SPR (Biacore), Fab
T4 construct: also called biotinylated hu-CD96-Fc

[5] = target: T5, hu-CD96 (soluble, isoform 2 extracellular domain) (human, UniProt P40200 22-516, biotinylated in Octet and blocking ELISA); experiment: CD155 blocking ELISA
T5 construct: the assays name only hu-CD96; also called hCD96; biotinylated hu-CD96
T5 sequence: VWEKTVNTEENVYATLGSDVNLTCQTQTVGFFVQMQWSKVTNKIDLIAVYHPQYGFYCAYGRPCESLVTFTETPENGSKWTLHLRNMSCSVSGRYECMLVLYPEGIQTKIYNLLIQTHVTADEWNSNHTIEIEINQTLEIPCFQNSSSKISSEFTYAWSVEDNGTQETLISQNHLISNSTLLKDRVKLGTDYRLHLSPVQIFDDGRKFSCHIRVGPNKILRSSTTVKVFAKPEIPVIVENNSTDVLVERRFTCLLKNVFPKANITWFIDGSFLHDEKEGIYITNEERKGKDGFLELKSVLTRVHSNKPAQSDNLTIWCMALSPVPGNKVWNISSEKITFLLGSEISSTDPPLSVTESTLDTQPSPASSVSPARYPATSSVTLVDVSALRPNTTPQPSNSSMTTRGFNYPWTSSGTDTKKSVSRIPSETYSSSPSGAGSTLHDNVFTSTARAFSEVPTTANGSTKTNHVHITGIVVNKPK

B1: h10G1 IgG (humanized 10G1) (antibody, V domains shown)
VH: EIQLVQSGSELKKPGASVKVSCKASGYPFTTYGMSWVRQAPGQGLEWMGWINTDSGVPTYADDFKGRFVFSLDTSVSTAYLQISSLKAEDTAVYFCARNIYYGWGNFDYWGQGTLVTVSS
VL: EIVMTQSPDFQSVTPKEKVTITCRASQDIYRNLHWYQQKPDQTPKLLIKHASDSISGIPSRFSGSGSGTDFTLTINSLEAEDAAAYYCLQGYSMPYTFGGGTKVEIKG
notes: human IgG1 N297G
Kd [1]: 740 pM
binding result [2]: no binding (tested: 1000 nM highest)
binding result [3]: no binding (tested: 1000 nM highest)

B2: mAb1.v7 Fab (Fab, V domains shown)
VH: EVQLVQSGAEVKKPGASVKVSCKASGFTFTNNWMHWVRQAPGQGLEWIGMIHPNSGITNINEKFKNRVTMTTDTSTSTAYMELRSLRSEDTAVYYCRSDGTYEGYFDYWGQGTLVTVSS
VL: DIQLTQSPSSLSASVGDRVTITCKASQNVGTAIVWYQQKPGKAPKVLIYSASTRYTGVPSRFSGSGSGTDFTLTISSLQPEDFATYYCQQYSSSPLTFGQGTKVEIK
Kd [4]: 44600 pM
koff [4]: 0.000817 s⁻¹
kon [4]: 18300 M⁻¹ s⁻¹
apparent IC50 (pooled screen) [5]: 740 pM
